Reference: article PMC9817892

Legend:
p63 [1] = biological target: p63 (UniProt Q9H3D4); assay: co-immunoprecipitation from metastatic tissue; conditions: reference: Nur77 wild type; sites S351
p63 [2] = biological target: p63 (UniProt Q9H3D4); assay: co-immunoprecipitation, Western blot; conditions: reference: Nur77 wild type; sites S351

binding against the reference (p63 [1]): weaker | binding against the reference (p63 [2]): lost
Substance: Nur77 (from UniProt P22736) Nur77 S351A
